Data: article PMC6168687, “The C‐terminal segment of collagenase in Grimontia hollisae binds collagen to enhance collagenolysis” (FEBS Open Bio, 2018)

Target: T1, insoluble type I collagen fibers (UniProt P02453 162-1217; P02465 80-1117)
T1 construct: type I collagen, alpha-1(I) chain; type I collagen, alpha-2(I) chain; Triple-helical, insoluble fibres; also called insoluble collagen fibers; native collagen; source: bought: Sigma‐Aldrich
Test: collagen-binding assay with Scatchard analysis; 2.5 mg insoluble type I collagen fibers in 50 μL binding buffer (50 mM Tris/HCl, 0.2 M NaCl, 5 mM CaCl2, pH 7.5) with 0.1–2.0 mg/mL C‐terminal segment and 0.05 mg/mL BSA; unbound protein in the filtrate by SDS/PAGE densitometry; triplicate; least‐squares fit
Conditions: both partners purified

T1 sequence (P02453 162-1217, chain 1 of 2): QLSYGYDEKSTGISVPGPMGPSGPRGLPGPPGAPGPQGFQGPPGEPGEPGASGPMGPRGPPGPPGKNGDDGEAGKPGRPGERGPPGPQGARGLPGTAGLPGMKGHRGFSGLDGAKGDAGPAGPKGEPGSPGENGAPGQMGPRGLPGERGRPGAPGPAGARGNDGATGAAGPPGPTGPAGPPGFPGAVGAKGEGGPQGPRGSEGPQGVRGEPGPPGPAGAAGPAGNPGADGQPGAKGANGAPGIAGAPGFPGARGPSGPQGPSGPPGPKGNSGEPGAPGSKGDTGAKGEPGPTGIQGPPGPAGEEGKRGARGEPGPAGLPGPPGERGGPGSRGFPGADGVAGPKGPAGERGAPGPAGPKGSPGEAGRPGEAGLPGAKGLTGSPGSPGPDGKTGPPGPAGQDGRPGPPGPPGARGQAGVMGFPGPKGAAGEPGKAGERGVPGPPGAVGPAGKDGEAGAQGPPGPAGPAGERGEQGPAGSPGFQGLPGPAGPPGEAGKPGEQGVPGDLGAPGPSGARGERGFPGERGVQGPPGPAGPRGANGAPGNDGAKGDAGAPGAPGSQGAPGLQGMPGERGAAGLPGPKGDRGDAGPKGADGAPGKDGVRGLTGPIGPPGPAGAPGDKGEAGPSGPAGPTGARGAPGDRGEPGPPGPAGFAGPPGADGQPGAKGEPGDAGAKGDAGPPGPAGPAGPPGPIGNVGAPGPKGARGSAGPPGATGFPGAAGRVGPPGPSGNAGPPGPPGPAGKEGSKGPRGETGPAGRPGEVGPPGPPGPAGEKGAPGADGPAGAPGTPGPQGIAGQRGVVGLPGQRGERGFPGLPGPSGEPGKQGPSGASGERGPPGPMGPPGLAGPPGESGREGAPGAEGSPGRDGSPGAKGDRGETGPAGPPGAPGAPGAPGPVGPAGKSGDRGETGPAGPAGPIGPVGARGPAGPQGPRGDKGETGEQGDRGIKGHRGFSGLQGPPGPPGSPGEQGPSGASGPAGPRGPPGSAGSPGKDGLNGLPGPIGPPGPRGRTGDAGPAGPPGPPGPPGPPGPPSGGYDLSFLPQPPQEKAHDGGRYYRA
T1 sequence (P02465 80-1117, chain 2 of 2): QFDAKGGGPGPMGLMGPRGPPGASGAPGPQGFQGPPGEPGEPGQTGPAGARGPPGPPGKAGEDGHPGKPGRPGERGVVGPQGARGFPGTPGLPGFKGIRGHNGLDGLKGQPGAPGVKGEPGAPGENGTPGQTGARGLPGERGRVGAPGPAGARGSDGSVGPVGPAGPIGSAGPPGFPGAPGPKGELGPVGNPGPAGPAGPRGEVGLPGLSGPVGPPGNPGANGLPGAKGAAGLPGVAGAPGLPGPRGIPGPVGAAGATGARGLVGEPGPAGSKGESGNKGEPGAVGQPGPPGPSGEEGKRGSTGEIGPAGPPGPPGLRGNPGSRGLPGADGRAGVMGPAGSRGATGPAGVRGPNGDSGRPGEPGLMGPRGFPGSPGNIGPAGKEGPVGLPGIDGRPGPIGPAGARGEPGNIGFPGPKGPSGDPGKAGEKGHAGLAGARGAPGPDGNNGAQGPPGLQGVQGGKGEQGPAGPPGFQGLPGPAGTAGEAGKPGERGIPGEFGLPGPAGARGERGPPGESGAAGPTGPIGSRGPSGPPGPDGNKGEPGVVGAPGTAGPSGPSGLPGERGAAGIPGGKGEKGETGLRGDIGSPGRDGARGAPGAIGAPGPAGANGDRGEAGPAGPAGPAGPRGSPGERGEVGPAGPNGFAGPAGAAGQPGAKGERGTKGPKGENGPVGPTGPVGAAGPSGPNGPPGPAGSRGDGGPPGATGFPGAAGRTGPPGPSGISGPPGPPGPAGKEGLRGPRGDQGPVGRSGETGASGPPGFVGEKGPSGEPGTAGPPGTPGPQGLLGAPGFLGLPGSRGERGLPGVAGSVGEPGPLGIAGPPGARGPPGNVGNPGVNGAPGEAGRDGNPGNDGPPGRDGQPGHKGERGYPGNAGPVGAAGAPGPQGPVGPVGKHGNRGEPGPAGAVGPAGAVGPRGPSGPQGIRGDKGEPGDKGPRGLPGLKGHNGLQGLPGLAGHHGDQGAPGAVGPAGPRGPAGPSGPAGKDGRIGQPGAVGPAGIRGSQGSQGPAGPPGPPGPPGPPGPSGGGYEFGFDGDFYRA

B1: recombinant C‐terminal segment (aa 616–767) including the PPC domain of Grimontia hollisae strain 1706B collagenase (domain or fragment)
chain: TEALAKGDSGAGNGEGTGSGNEGGGESGGNTGLPENCAVLPKISDGRLALDEAACLADTASASDVLWFSIPAVSEYQTIAITAGNGTGDLTLEYSNLNWPDGTNVQASSANMGNSECIILEHQANYWGYLKVSGSFENAALLVEAGSNQCRQ
notes: 15.4 kDa; The forward primer carries the enterokinase site (DDDDK) just before residue T616, so the cleaved His-tag was probably N-terminal (surmised); QTOF-MS mass 15 445.01 Da fits two intrachain disulfide bonds; also called G. hollisae
With B1 as the binder, how does the Kd read?
The Kd was 27.2 µM.
